Data set [1] deals with the molecule itself. The data set can be described thus: SEC. Background: In gel filtration, larger molecules generally elute earlier.
Data set [2] concerns the molecule itself. As to the kind of experiment: SEC. This is another data set of the same source.

Read-outs that look alike come from different tables or passages of the source.

B1: human DHHC15 (Palmitoyl Acyl Transferase, hDHHC15) fused to mVenus (enzyme, UniProt Q96MV8 1-337, looked up)
chain: MRRGWKMALSGGLRCCRRVLSWVPVLVIVLVVLWSYYAYVFELCLVTVLSPAEKVIYLILYHAIFVFFTWTYWKSIFTLPQQPNQKFHLSYTDKERYENEERPEVQKQMLVDMAKKLPVYTRTGSGAVRFCDRCHLIKPDRCHHCSVCAMCVLKMDHHCPWVNNCIGFSNYKFFLQFLAYSVLYCLYIATTVFSYFIKYWRGELPSVRSKFHVLFLLFVACMFFVSLVILFGYHCWLVSRNKTTLEAFCTPVFTSGPEKNGFNLGFIKNIQQVFGDKKKFWLIPIGSSPGDGHSFPMRSMNESQNPLLANEETWEDNEDDNQDYPEGSSSLAVETET
For orientation: stoichiometry N means a count of units in the complex or per binding partner. On to B1, for which the “stoichiometry N” value in the data set “SEC [1]” worked out at 2.

B2: human DHHC15 (Palmitoyl Acyl Transferase, hDHHC15), purified, tag cleaved (enzyme, UniProt Q96MV8 1-337, looked up)
chain: B1 chain
As for B2, in the data set “SEC [2]”, the “stoichiometry N” value turned out to be 2.

These data come from publication PMC7373347 (Current protocols in cell biology, 2020).
